# Source: article PMC12700550, “DLL4^+ neutrophils promote Notch1-mediated endothelial PANoptosis to exacerbate acute lung injury in sepsis” (The Journal of Clinical Investigation, 2025)
# “And” between values parts separate entries of the source, which are not always exact repeats. Identical values can stand only once.
# B1: eCIRP: extracellular cold-inducible RNA-binding protein; recombinant murine, produced in our laboratory (protein, UniProt P60824 1-172, looked up)
# Cold-inducible RNA-binding …: MASDEGKLFVGGLSFDTNEQALEQVFSKYGQISEVVVVKDRETQRSRGFGFVTFENIDDAKDAMMAMNGKSVDGRQIRVDQAGKSSDNRSRGYRGGSAGGRGFFRGGRSRGRGFSRGGGDRGYGGGRFESRSGGYGGSRDYYASRSQGGSYGYRSSGGSYRDSYDSYATHNE
# Key:
# ZBP1 = ZBP1 mRNA in lungs of CLP mice, RT-PCR; type: in vivo, mouse; settings: 20 h; for lung ZBP1 mRNA (Figure 5A): 10 mg/kg NDI retro-orbital, vs sham, individual mice, 10 mg/kg
# Protocol: (§1) Sepsis was induced in mice by cecal ligation and puncture (CLP) as described previously ([45], [46]). Mice were anesthetized with isoflurane to a surgical plane and placed in a supine position. CLP was performed through a midline laparotomy. The abdomen was shaved and disinfected. Through a 2 cm midline incision, the cecum was exposed and then ligated with a 4-0 silk suture 1 cm proximal from the distal cecal extremity. For 20-hour CLP experiments, the cecum was punctured twice with a 22-gauge needle. A small amount of cecal content was extruded through both holes, and the ligated cecum was returned to the peritoneal cavity. The wound was closed in layers. For 10-day sepsis survival studies, the cecum was punctured once with a 22-gauge needle. A small amount of cecal content was extruded. Mice were allocated to the vehicle and adoptive transfer of DLL4^+ neutrophils or DLL4^– neutrophils groups. Adoptive transfer mice received a retro-orbital injection of 1 × 10^6 cells per mouse DLL4^+ neutrophils or DLL4^– neutrophils in […] phosphate-buffered saline (PBS) immediately after abdominal closure in both the 20-hour experiments and the survival study. Vehicle groups received an equivalent volume of PBS, while treatment groups received NDI 10 mg/kg in […] PBS via retro-orbital injection after CLP. This dose was chosen primarily on the basis of our laboratory’s prior experience, we have consistently used this dose in mouse CLP models with reproducible efficacy and without observable toxicity ([39], [44]). Sham-operated animals underwent a laparotomy without CLP. After closure, the mice received a subcutaneous injection of 0.5 mL of normal saline to overcome surgery-induced dehydration. For 20-hour experiments, animals were not injected with antibiotics; however, for survival studies, animals were given 0.5 mg per kg body weight imipenem (lot 4D21K05, WG Critical Care LLC) subcutaneously in 0.5 mL saline once at the end of CLP. All mice were subcutaneously injected with a single dose of 0.1 mg/kg buprenorphine after CLP. […]
# p-MLKL = assay: p-MLKL/MLKL in lungs of CLP mice, Western blot; type: in vivo, mouse; settings: 10 mg/kg NDI, 20 h; for lung p-MLKL/MLKL (Figure 5F): individual mice, 10 mg/kg
# Protocol: as §1, with “dehydration.” for “dehydration. For 20-hour experiments, animals were not injected with antibiotics; however, for survival studies, animals were given 0.5 mg per kg body weight imipenem (lot 4D21K05, WG Critical Care LLC) subcutaneously in 0.5 mL saline once at the end of CLP. All mice were subcutaneously injected with a single dose of 0.1 mg/kg buprenorphine after CLP.”
# (§2) PVECs and lung tissue were collected in previous steps. Whole-cell proteins were extracted, and the protein concentration was measured using an ABC protein assay kit (catalog 5000002, Bio-Rad). […] Bands were detected using an Odyssey FC Dual-Mode Imaging system 2800 (LI-COR).
# c-caspase-3 = assay: c/t caspase-3 in lungs of CLP mice, Western blot; type: in vivo, mouse; settings: 10 mg/kg NDI, 20 h; for lung c/t caspase-3 (Figure 5E): individual mice, 10 mg/kg
# Protocol: Sepsis was induced in mice by cecal ligation and puncture (CLP) as described previously ([45], [46]). Mice were anesthetized with isoflurane to a surgical plane and placed in a supine position. CLP was performed through a midline laparotomy. The abdomen was shaved and disinfected. Through a 2 cm midline incision, the cecum was exposed and then ligated with a 4-0 silk suture 1 cm proximal from the distal cecal extremity. For 20-hour CLP experiments, the cecum was punctured twice with a 22-gauge needle. A small amount of cecal content was extruded through both holes, and the ligated cecum was returned to the peritoneal cavity. The wound was closed in layers. For 10-day sepsis survival studies, the cecum was punctured once with a 22-gauge needle. A small amount of cecal content was extruded. Mice were allocated to the vehicle and adoptive transfer of DLL4^+ neutrophils or DLL4^– neutrophils groups. […] Vehicle groups received an equivalent volume of PBS, while treatment groups received NDI 10 mg/kg in […] PBS via retro-orbital injection after CLP. This dose was chosen primarily on the basis of our laboratory’s prior experience, we have consistently used this dose in mouse CLP models with reproducible efficacy and without observable toxicity ([39], [44]). Sham-operated animals underwent a laparotomy without CLP. After closure, the mice received a subcutaneous injection of 0.5 mL of normal saline to overcome surgery-induced dehydration. For 20-hour experiments, animals were not injected with antibiotics; however, for survival studies, animals were given 0.5 mg per kg body weight imipenem (lot 4D21K05, WG Critical Care LLC) subcutaneously in 0.5 mL saline once at the end of CLP. All mice were subcutaneously injected with a single dose of 0.1 mg/kg buprenorphine after CLP.
# as §2
# DLL4 = DLL4 mRNA in eCIRP-treated BMDNs, qPCR; type: cell-based, mouse; settings: for DLL4 mRNA: DLL4-CIRP
# Protocol: (§3) mRNA was extracted from lung tissues with TRIzol reagent (Invitrogen, Thermo Fisher Scientific). An equal amount ([…]) of mRNA was reverse-transcribed into cDNA using the reverse transcriptase enzyme (Invitrogen, Thermo Fisher Scientific). qPCR was performed from the diluted cDNA templates with forward and reverse primers (Supplemental Table 4) and SYBR Green PCR Master Mix (Applied Biosystems, Thermo Fisher Scientific) using an Applied Biosystems 7300 real-time PCR machine. Mouse β-actin served as an internal control gene for normalization. Relative expression of mRNA was represented as fold change in comparison with the sham group.
# (§4) BMDNs (1 × 10^6) were treated with eCIRP (1 μg/mL) for 12 hours, and DLL1, DLL3, and DLL4 were analyzed by qPCR.
# DLL1 = DLL1 mRNA in eCIRP-treated BMDNs, qPCR; type: cell-based, mouse; settings: for DLL1 mRNA: DLL1-CIRP
# Protocol: as §3, §4
molecule,measurement,setting,value
ECAGSPCHNGGTCEDGI [NDI],lung ZBP1 mRNA (Figure 5A),ZBP1; DLL4^+ neutrophils i.v. + CLP,2.489 fold change and 2.951 fold change and 0.6537 fold change and 1.296 fold change and 1.101 fold change and 2.543 fold change and 1.904 fold change and 2.345 fold change and 0.6068 fold change and 1.613 fold change and 2.244 fold change and 2.348 fold change and 0.6906 fold change
same,effect on lung ZBP1 mRNA,"ZBP1; DLL4^+ neutrophils/sepsis, 10 mg/kg NDI",effectively decreased ZBP1 expression
same,lung ZBP1 mRNA (Figure 5A),ZBP1; DLL4^– neutrophils + CLP,3.779 fold change and 3.701 fold change and 3.374 fold change and 2.776 fold change and 2.9508 fold change and 2.383 fold change and 4.109 fold change and 2.422 fold change
same,lung p-MLKL/MLKL (Figure 5F),p-MLKL; DLL4^+ neutrophils + CLP,1.846 and 1.579 and 1.945 and 1.685 and 1.856 and 1.651 and 0.9594
same,effect on lung p-MLKL,p-MLKL; DLL4^+ neutrophils/sepsis,attenuated the expression/activation
same,lung p-MLKL/MLKL (Figure 5F),p-MLKL; DLL4^– neutrophils + CLP,1.556 and 0.2214 and 0.5541 and 0.7582 and 0.5214 and 0.9855
same,lung c/t caspase-3 (Figure 5E),c-caspase-3; DLL4^+ neutrophils + CLP,0.946 and 0.8954 and 1.049 and 0.8952 and 1.09 and 1.113 and 0.9785 and 0.9235 and 1.192
same,effect on lung c-caspase-3,c-caspase-3; DLL4^+ neutrophils/sepsis,attenuated the expression/activation
same,lung c/t caspase-3 (Figure 5E),c-caspase-3; DLL4^– neutrophils + CLP,1.224 and 1.151 and 0.8027 and 0.9965 and 0.8798 and 1.281
B1,effect on DLL4 expression,"DLL4; BMDNs, eCIRP 1 μg/mL, 12 h",selectively upregulated DLL4
same,DLL4 mRNA,DLL4; replicate 1,2.784
same,DLL4 mRNA,DLL4; replicate 2,1.987
same,DLL4 mRNA,DLL4; replicate 3,1.949
same,DLL4 mRNA,DLL4; replicate 4,2.578
same,DLL4 mRNA,DLL4; replicate 5,2.145
same,DLL4 mRNA,DLL4; replicate 6,5.912
same,DLL4 mRNA,DLL4; replicate 7,4.801
same,DLL4 mRNA,DLL4; replicate 8,3.122
same,effect on DLL1 expression,"DLL1; BMDNs, eCIRP 1 μg/mL, 12 h",no significant induction of DLL1 or DLL3
same,DLL1 mRNA,DLL1; replicate 1,0.838
same,DLL1 mRNA,DLL1; replicate 2,0.9002
same,DLL1 mRNA,DLL1; replicate 3,1.276
same,DLL1 mRNA,DLL1; replicate 4,1.001
same,DLL1 mRNA,DLL1; replicate 5,0.5711
same,DLL1 mRNA,DLL1; replicate 6,0.6454
same,DLL1 mRNA,DLL1; replicate 7,0.3425
same,DLL1 mRNA,DLL1; replicate 8,0.4208
